B1: glmS ribozyme (parent)
chain: AUAAAAGCGCCAGAACUACAGAAAUGUAGUUGACGAGGAGGAGGUUUAUCGAAUUUUCGGCGGAUGCCUCCAAA

What all share (conditions): with glucosamine-6-phosphate
In data set [1] the parent is B1. Put plainly: self-cleavage kobs at 40 uM GlcN6P; higher = faster cleavage; RNA array. Put shortly:
(§1)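 Glucosamine-6-phosphate (40 μM to 10 mM) in HEPES/KCl/Mg(OAc)2 buffer was flowed over sequenced MiSeq chips, and tiles were imaged over ~14 h. Barcoded ribozyme variants there had been transcribed in situ by E. coli RNA polymerase and were tracked through a hybridised Cy3 probe at 37 °C. One- or two-exponential decay fits to per-tile medians, normalised to baseline and to non-cleaving reference variants, gave kobs. kcat and KM came from weighted Michaelis–Menten fits across concentrations.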

Data set [2] covers variants of B1. Put plainly: self-cleavage kobs at 160 uM GlcN6P; higher = faster cleavage; RNA array. Put shortly: as §1
Data set [3] covers variants of B1. Put plainly: self-cleavage kobs at 640 uM GlcN6P; higher = faster cleavage; RNA array. A digest of the protocol:
as §1

In data set [4] the parent is B1. As to the kind of experiment: self-cleavage kobs at 2500 uM GlcN6P; higher = faster cleavage; RNA array. Put shortly: as §1
Data set [5] covers variants of B1. Put plainly: self-cleavage kobs at 10000 uM GlcN6P; higher = faster cleavage; RNA array. Put shortly: as §1

Consider 21 variants from the supplement of paper PMC7125110.

± gives the standard error. Fewer inactive variants are shown than the library holds.

Regarding U45C U54G, in the data set with glucosamine-6-phosphate [1], the “self-cleavage kobs at 40 uM GlcN6P” value is 3.96e-05 ± 1.3e-05 s⁻¹. In the data set with glucosamine-6-phosphate [2], the “self-cleavage kobs at 160 uM GlcN6P” value stood at 0.000199 ± 3.9e-05 s⁻¹. Besides, the “self-cleavage kobs at 640 uM GlcN6P” value with glucosamine-6-phosphate [3] is 0.00067 ± 0.00015 s⁻¹. Further, the “self-cleavage kobs at 2500 uM GlcN6P” value with glucosamine-6-phosphate [4] was 0.000454 ± 0.00018 s⁻¹. Moreover, the “self-cleavage kobs at 10000 uM GlcN6P” value with glucosamine-6-phosphate [5] was found to be 0.00305 ± 0.00064 s⁻¹.
For the variant C16G G35C A36U A42U C50U, the “self-cleavage kobs at 40 uM GlcN6P” value in the data set with glucosamine-6-phosphate [1] was below 1e-05 s⁻¹. Moreover, in the data set with glucosamine-6-phosphate [5], the “self-cleavage kobs at 10000 uM GlcN6P” value was below 1e-05 s⁻¹.
C11G U49A: the “self-cleavage kobs at 40 uM GlcN6P” value in the data set with glucosamine-6-phosphate [1] is below 1e-05 s⁻¹. Moreover, the “self-cleavage kobs at 160 uM GlcN6P” value in the data set with glucosamine-6-phosphate [2] was below 1e-05 s⁻¹. In the data set with glucosamine-6-phosphate [3], the “self-cleavage kobs at 640 uM GlcN6P” value was below 1e-05 s⁻¹. In addition, the “self-cleavage kobs at 2500 uM GlcN6P” value with glucosamine-6-phosphate [4] was below 1e-05 s⁻¹.
For A6G A12U G66A, in the data set with glucosamine-6-phosphate [1], the “self-cleavage kobs at 40 uM GlcN6P” value is below 1e-05 s⁻¹. The “self-cleavage kobs at 2500 uM GlcN6P” value with glucosamine-6-phosphate [4] amounted to 0.000132 ± 3.5e-05 s⁻¹. In the data set with glucosamine-6-phosphate [5], the “self-cleavage kobs at 10000 uM GlcN6P” value worked out at 7.44e-05 ± 2.2e-05 s⁻¹.
Turning to G7A U47A, in the data set with glucosamine-6-phosphate [1], the “self-cleavage kobs at 40 uM GlcN6P” value is below 1e-05 s⁻¹. Further, the “self-cleavage kobs at 160 uM GlcN6P” value with glucosamine-6-phosphate [2] is below 1e-05 s⁻¹.
Turning to G32U A36G, the “self-cleavage kobs at 40 uM GlcN6P” value with glucosamine-6-phosphate [1] is below 1e-05 s⁻¹. The “self-cleavage kobs at 160 uM GlcN6P” value in the data set with glucosamine-6-phosphate [2] is below 1e-05 s⁻¹. The “self-cleavage kobs at 640 uM GlcN6P” value with glucosamine-6-phosphate [3] was below 1e-05 s⁻¹. Besides, the “self-cleavage kobs at 2500 uM GlcN6P” value in the data set with glucosamine-6-phosphate [4] was below 1e-05 s⁻¹. For the same variant, the “self-cleavage kobs at 10000 uM GlcN6P” value with glucosamine-6-phosphate [5] was below 1e-05 s⁻¹.
Take A6C A14C U31G A48G G51U C58U C61A: the “self-cleavage kobs at 40 uM GlcN6P” value with glucosamine-6-phosphate [1] is 8.19e-05 ± 3.4e-05 s⁻¹.
Regarding U54A G63C, the “self-cleavage kobs at 40 uM GlcN6P” value with glucosamine-6-phosphate [1] is below 1e-05 s⁻¹. In addition, the “self-cleavage kobs at 10000 uM GlcN6P” value in the data set with glucosamine-6-phosphate [5] was below 1e-05 s⁻¹.
Take A15U G51C A64G: in the data set with glucosamine-6-phosphate [1], the “self-cleavage kobs at 40 uM GlcN6P” value was below 1e-05 s⁻¹.
Turning to A6U G7U C58G U69G, in the data set with glucosamine-6-phosphate [1], the “self-cleavage kobs at 40 uM GlcN6P” value worked out at 0.000141 ± 4.3e-05 s⁻¹. For the same variant, the “self-cleavage kobs at 10000 uM GlcN6P” value with glucosamine-6-phosphate [5] worked out at 0.000123 ± 3.5e-05 s⁻¹.
As for G7A C8A A42C U69A, in the data set with glucosamine-6-phosphate [1], the “self-cleavage kobs at 40 uM GlcN6P” value is below 1e-05 s⁻¹. Moreover, the “self-cleavage kobs at 10000 uM GlcN6P” value in the data set with glucosamine-6-phosphate [5] is below 1e-05 s⁻¹.
As to A15G G32A, in the data set with glucosamine-6-phosphate [1], the “self-cleavage kobs at 40 uM GlcN6P” value worked out at 6.35e-05 ± 1.4e-05 s⁻¹. Besides, in the data set with glucosamine-6-phosphate [2], the “self-cleavage kobs at 160 uM GlcN6P” value came to 0.000114 ± 2.3e-05 s⁻¹. Besides, in the data set with glucosamine-6-phosphate [3], the “self-cleavage kobs at 640 uM GlcN6P” value was determined as 0.000628 ± 7.7e-05 s⁻¹. In the data set with glucosamine-6-phosphate [4], the “self-cleavage kobs at 2500 uM GlcN6P” value stood at 0.00103 ± 0.00018 s⁻¹. Also, the “self-cleavage kobs at 10000 uM GlcN6P” value with glucosamine-6-phosphate [5] stood at 0.00311 ± 0.00077 s⁻¹.
C10G G29U U31C A36U C68A C71U: the “self-cleavage kobs at 40 uM GlcN6P” value with glucosamine-6-phosphate [1] is below 1e-05 s⁻¹.
With C34U G63U, the “self-cleavage kobs at 40 uM GlcN6P” value in the data set with glucosamine-6-phosphate [1] is below 1e-05 s⁻¹. Further, the “self-cleavage kobs at 160 uM GlcN6P” value with glucosamine-6-phosphate [2] was below 1e-05 s⁻¹. For the same variant, the “self-cleavage kobs at 640 uM GlcN6P” value in the data set with glucosamine-6-phosphate [3] is below 1e-05 s⁻¹. Moreover, the “self-cleavage kobs at 2500 uM GlcN6P” value with glucosamine-6-phosphate [4] is below 1e-05 s⁻¹.
For the variant U47A U55A, the “self-cleavage kobs at 40 uM GlcN6P” value with glucosamine-6-phosphate [1] came to 0.000618 ± 0.00013 s⁻¹. Further, the “self-cleavage kobs at 160 uM GlcN6P” value with glucosamine-6-phosphate [2] was found to be 0.00147 ± 0.00021 s⁻¹. Further, in the data set with glucosamine-6-phosphate [3], the “self-cleavage kobs at 640 uM GlcN6P” value is 0.00544 ± 0.0015 s⁻¹. The “self-cleavage kobs at 2500 uM GlcN6P” value with glucosamine-6-phosphate [4] was 0.00615 ± 0.0017 s⁻¹. Moreover, the “self-cleavage kobs at 10000 uM GlcN6P” value with glucosamine-6-phosphate [5] came out at 0.0432 ± 0.015 s⁻¹.
Taken in the same sequence, the figures for G13U C58A were 4.24e-05 ± 1.8e-05 s⁻¹, 7.4e-05 ± 1.6e-05 s⁻¹, 0.000326 ± 5.2e-05 s⁻¹, 0.000524 ± 8.1e-05 s⁻¹ and 0.00176 ± 0.00026 s⁻¹.
With A42G G43C U45G A64U, the “self-cleavage kobs at 40 uM GlcN6P” value with glucosamine-6-phosphate [1] is below 1e-05 s⁻¹. The “self-cleavage kobs at 10000 uM GlcN6P” value in the data set with glucosamine-6-phosphate [5] was below 1e-05 s⁻¹.
Consider C50G C61U, for which the “self-cleavage kobs at 40 uM GlcN6P” value with glucosamine-6-phosphate [1] was 3.66e-05 ± 1.1e-05 s⁻¹. Besides, the “self-cleavage kobs at 160 uM GlcN6P” value with glucosamine-6-phosphate [2] amounted to 6.61e-05 ± 1.4e-05 s⁻¹. In addition, the “self-cleavage kobs at 640 uM GlcN6P” value with glucosamine-6-phosphate [3] worked out at 9.4e-05 ± 1.3e-05 s⁻¹. The “self-cleavage kobs at 2500 uM GlcN6P” value in the data set with glucosamine-6-phosphate [4] turned out to be 0.000423 ± 0.0002 s⁻¹.
With A33C U54A U57C, the “self-cleavage kobs at 40 uM GlcN6P” value in the data set with glucosamine-6-phosphate [1] was below 1e-05 s⁻¹. Further, the “self-cleavage kobs at 2500 uM GlcN6P” value with glucosamine-6-phosphate [4] is below 1e-05 s⁻¹.
Take C58G G59U: in the data set with glucosamine-6-phosphate [1], the “self-cleavage kobs at 40 uM GlcN6P” value is below 1e-05 s⁻¹. Further, the “self-cleavage kobs at 160 uM GlcN6P” value in the data set with glucosamine-6-phosphate [2] is below 1e-05 s⁻¹. The “self-cleavage kobs at 640 uM GlcN6P” value with glucosamine-6-phosphate [3] was below 1e-05 s⁻¹. Further, the “self-cleavage kobs at 2500 uM GlcN6P” value with glucosamine-6-phosphate [4] was below 1e-05 s⁻¹. Further, in the data set with glucosamine-6-phosphate [5], the “self-cleavage kobs at 10000 uM GlcN6P” value is below 1e-05 s⁻¹.
As to G7C A33U, the “self-cleavage kobs at 40 uM GlcN6P” value with glucosamine-6-phosphate [1] is below 1e-05 s⁻¹. Moreover, the “self-cleavage kobs at 160 uM GlcN6P” value with glucosamine-6-phosphate [2] is below 1e-05 s⁻¹. The “self-cleavage kobs at 2500 uM GlcN6P” value in the data set with glucosamine-6-phosphate [4] was below 1e-05 s⁻¹. The “self-cleavage kobs at 10000 uM GlcN6P” value in the data set with glucosamine-6-phosphate [5] is below 1e-05 s⁻¹.
